Data taken from patent US20230348881.

Assays:
[1] = test system: exemplary modified PPE proproteins
[2] = test system: wild-type PPE proprotein as used in Example 2
wild-type PPE proprotein as used in Example 2, sequence (chain, as listed by the source): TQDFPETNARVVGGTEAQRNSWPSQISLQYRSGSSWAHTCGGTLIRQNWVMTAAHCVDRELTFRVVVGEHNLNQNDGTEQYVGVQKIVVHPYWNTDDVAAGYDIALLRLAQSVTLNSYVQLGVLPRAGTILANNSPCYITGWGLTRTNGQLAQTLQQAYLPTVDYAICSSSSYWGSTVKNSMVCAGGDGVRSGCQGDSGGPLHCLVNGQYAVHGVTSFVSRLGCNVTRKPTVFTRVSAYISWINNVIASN

**Q.** How did the “catalytic activity after protease digestion (colorimetric substrate assay), FIG. 4B” value [1] turn out when purified trypsin was run?
**A.** Its value is “catalytically-inactive after incubation with trypsin or no protease”.

**Q.** And the “catalytic activity after protease digestion (colorimetric substrate assay), FIG. 4B” value [2]?
**A.** The value was “the wild-type PPE protein was catalytically-active after incubation with trypsin”.

**Q.** What about the “protease cleavage by SDS-PAGE and Coomassie blue staining” value [2] of the same substance?
**A.** Its value is “trypsin cleaved the wild-type PPE as a control”.
